According to paper doi:10.1101/287425:

Biological target: pyrene-labeled actin (rabbit skeletal muscle F-actin) (rabbit) (UniProt P68135)
Assay: other fluorescence titration

## single-headed S1 fragment of bovine ventricular cardiac myosin (from UniProt Q9BE39 1-1935; P85100 1-199) (complex)
  relative pyrene-actin fluorescence after addition of 2.0 mM MgATP: 0.95
  stoichiometry N (myosin heads per actin): 1
